Columns and labels:
[1] = target: human PTK7 on human cancer cell lines (human) (UniProt Q13308); test: flow cytometry, NCI-H358 cells, isotype control
[2] = target: dog PTK7 on dog cancer cell lines (dog); test: flow cytometry, D-17 dog cells, isotype control
[3] = target: human PTK7 on human cancer cell lines (human) (UniProt Q13308); test: flow cytometry, PC-3 cells, isotype control
[4] = target: dog PTK7 on dog cancer cell lines (dog); test: flow cytometry, CMT-U27 dog cells, isotype control
[5] = target: human PTK7 on human cancer cell lines (human) (UniProt Q13308); test: flow cytometry, HCT116 cells, isotype control
[6] = target: human PTK7 on human cancer cell lines (human) (UniProt Q13308); test: flow cytometry, NCI-H292 cells, isotype control
[7] = target: human PTK7 on human cancer cell lines (human) (UniProt Q13308); test: flow cytometry, NCI-H226 cells, isotype control
[8] = target: human PTK7 on human cancer cell lines (human) (UniProt Q13308); test: flow cytometry, NCI-N87 cells, isotype control
[9] = target: human PTK7 on human cancer cell lines (human) (UniProt Q13308); test: flow cytometry, SK-OV-3 cells, isotype control
[10] = target: human PTK7 on human cancer cell lines (human) (UniProt Q13308); test: flow cytometry, HCC1954 cells, isotype control
[11] = target: human PTK7 on human cancer cell lines (human) (UniProt Q13308); test: flow cytometry, A-431 cells, isotype control
[12] = target: human PTK7 on human cancer cell lines (human) (UniProt Q13308); test: flow cytometry, BT-20 cells, isotype control
[13] = target: human PTK7 on human cancer cell lines (human) (UniProt Q13308); test: flow cytometry, NCI-H520 cells, isotype control

Sequence of human PTK7 on human cancer cell lines (human) (Q13308 31-1070 limits assumed): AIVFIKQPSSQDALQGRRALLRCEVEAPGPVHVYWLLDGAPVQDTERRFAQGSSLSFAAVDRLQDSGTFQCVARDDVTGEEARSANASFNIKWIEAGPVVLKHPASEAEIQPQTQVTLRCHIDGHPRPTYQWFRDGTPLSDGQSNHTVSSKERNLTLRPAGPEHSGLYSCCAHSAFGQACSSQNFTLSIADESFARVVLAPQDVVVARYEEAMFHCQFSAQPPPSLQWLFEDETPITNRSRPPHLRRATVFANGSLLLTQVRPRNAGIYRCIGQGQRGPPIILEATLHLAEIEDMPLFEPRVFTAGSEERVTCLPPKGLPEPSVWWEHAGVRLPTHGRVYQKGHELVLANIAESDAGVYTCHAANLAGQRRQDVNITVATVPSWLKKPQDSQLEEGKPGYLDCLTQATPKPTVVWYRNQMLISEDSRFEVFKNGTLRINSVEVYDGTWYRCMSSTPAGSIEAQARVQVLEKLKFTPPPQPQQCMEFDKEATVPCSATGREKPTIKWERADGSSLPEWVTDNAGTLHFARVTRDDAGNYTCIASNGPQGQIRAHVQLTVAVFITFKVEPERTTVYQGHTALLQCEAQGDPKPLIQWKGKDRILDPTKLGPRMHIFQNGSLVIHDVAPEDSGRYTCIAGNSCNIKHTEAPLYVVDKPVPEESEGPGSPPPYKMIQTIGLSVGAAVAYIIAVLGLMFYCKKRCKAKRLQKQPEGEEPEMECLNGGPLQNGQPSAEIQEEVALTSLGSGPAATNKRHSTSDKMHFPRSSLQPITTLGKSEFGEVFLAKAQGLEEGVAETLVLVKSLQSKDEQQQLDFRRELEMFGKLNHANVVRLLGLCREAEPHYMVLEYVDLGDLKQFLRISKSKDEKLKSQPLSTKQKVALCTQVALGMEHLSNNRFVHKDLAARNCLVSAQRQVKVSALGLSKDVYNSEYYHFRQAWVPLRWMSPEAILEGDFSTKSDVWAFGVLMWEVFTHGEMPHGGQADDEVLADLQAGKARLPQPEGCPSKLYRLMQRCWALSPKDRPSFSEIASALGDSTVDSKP

MFI [1]: 3360
MFI [2]: 3520
MFI [3]: 3690
MFI [4]: 1650
MFI [5]: 3110
MFI [6]: 2230
MFI [7]: 9840
MFI [8]: 2850
MFI [9]: 3860
MFI [10]: 6340
MFI [11]: 4630
MFI [12]: 5920
MFI [13]: 2420
Substance: Human IgG1 (ISO control) (antibody)

Reference: patent US20260250421A1
